Test results: publication PMC4625125

Tested on: ScbR2
Test: EMSA
Settings: 'nearly 1 uM'; exact value in figure; not stated; modified EMSA as previously described (ref 23)

PkasO1
Kd: 1000 nM
